The text below walks through data of paper PMC7467872.

The target in assay [1] is His-tagged FP8_v1 (HIV-1). Put plainly: SPR.
The target in assay [2] is His-tagged FP8_v1 (HIV-1). The experiment in a line: BLI.
Assay [3] addresses BG505 DS-SOSIP ∆88 Env trimer (glycan N88 removed) (HIV-1 strain BG505). Put plainly: SPR. In general terms: In SPR one partner is held on a chip, and binding of the other changes the refractive index at the surface.

B1: VRC34.07 Fab (Fab, V domains shown)
VH: SQYLAQPGAEVAKPGASVKVSCKVHGDNFRGHYLHWVRQAPGQGLQWIGGINPFSGEAAYGKRFEGRLRLTRDTSVNTAYMELAKLTPDDTAVYFCARDKTYNDEFTAMDIWGHGTTVIVSS
VL: DIKLTQSPAFLSASVGERVTFTCRASQDISHDLVWFQQKAGRAPSLLMFYGSTLERGVPPRFSGRRSGTEFTVTIDSLQPEDVGTYYCQQLSAFPLTFGGGTTVDIK
With B1, the Kd in assay [1] amounted to 0.2 nM.

B2: VRC34-pI3 P33A (heavy chain) mutant antibody (antibody, V domains shown)
VH: QEVLVQSGAEVKKPGASVKVSCKAFGYTFTGNAMHWVRQAPGQGLEWMGWINPHSGDTTTAQKFQGRVYMTRDKSINTAYLDVTRLTSDDTAIYYCARDKYYGNEAVGMDVWGQGTTVTVSS
VL: DIQLTQSPSFLSASVGDRVTITCRASQGISNELAWYQQKPGKAPNLLIYYASTLQSGVPSRFSASGSGTHFTLTISSLQPEDFATYFCQHMSSYPLTFGGGTKVEIK
Molecule B2 displayed a Kd in assay [2] of 60 nM.

B3: VRC34.05 Fab (Fab, V domains shown)
VH: SQYLAQSGSEVKKPGASVKVSCRLHGDKFGAHYIHWVRQAPGQGLEWLGFFHPGTGDAVSAQKFQGRISLTRDTSISTGYLEVRRLSSDDTAVYYCARDKTYSDEATGMDIWGQGTTVIVSS
VL: DIKLTQSPAFLSASVGERVTFTCRASQDIRHELVWYQQKPGRGPKLLIYYGSTLEGGVPSRFSGRRSGTEFTVTISSLQPEDVGTYYCQQLNSFPLTFGGGTTVDIR
In assay [3], B3 yielded a fold decrease of affinity against the BG505 trimer with glycan N88 of 100 fold.

The term Kd denotes the free concentration of one partner at which half of the binding sites on the other are occupied at equilibrium, for simple one-to-one binding.
